Test system: JNK inhibitor according to SEQ ID NO: 172 ("XG-104")

## c-Jun N-terminal kinase (JNK) in primary mouse cortical neurons
  c-Jun phosphorylation (immunoblot), WT neurons stressed with 2 µM Aβ42, 10 µM XG-104: XG-104 showed -29% efficacy in order to decrease c-Jun phosphorylation (FIG. 55 C)

From patent publication US20200093883
